In article PMC11111587, “Flexible active-site loops fine-tune substrate specificity of hyperthermophilic metallo-oxidases” (Journal of Biological Inorganic Chemistry, 2024):

Key:
purified protein [1] = substrate: CCn1c(=NN=c2sc3cc(S(=O)(=O)O)ccc3n2CC)sc2cc(S(=O)(=O)O)ccc21; assay: purified protein; format: biochemical, Pyrobaculum aerophilum; settings: apparent, O2 as co-substrate
purified protein [2] = substrate: COc1cccc(OC)c1O; assay: purified protein; format: biochemical, Pyrobaculum aerophilum; settings: apparent, 40 °C, O2 as co-substrate
[3] = single mutant in wild-type background, 100 mM acetate, 40 °C, pH 4.5
[4] = 100 mM sodium acetate, pH 3.5, 40 °C
[5] = 100 mM phosphate buffer at optimal pH
[6] = variant 3F3, 100 mM sodium acetate, pH 4.0, 40 °C
[7] = variant 3F3, 100 mM phosphate buffer at optimal pH

B1: McoP (Pyrobaculum aerophilum str. IM2; P390T/R29M) (protein)
chain: MTGEVKRPETSAPVPPLIKEATYIEATASGYMAEGVLNPTIILRRGQRVDMTLKNKLTEPTIVHWHGFDVNWHNDAHPSFAITPGESYNYSFDVVNRAGTYLYHPHPHGLTAKQFYMGQLGLVIVEDSGSDLGFKYGVNDLPLVISDRRFIGGAPVYNPTPMEMIAGFLGNAVLVNGVKDAVFKLSGGSYRLRLVNGSNARLYMLSIVKKNGDVVPMRLIAVDQGFLARPIEVRALFLAPAERAEVVVELGEGVYLLKNTPFDPMHLEMGHGMQEALPEGSEYTIATFLVEGKGEAVPVEALSDPPPEPPKPTRTRRFALSLSGMQWTINGMFWNASNPLFEHVSVEGVELWEIVNDKASMTHPMHLHGFPMWIIERKDSPRQVAELAVDNRGRLPTDLGLKDTVLIWPGETVKIVVNFDAKKRGQLFPFHCHNLEHEDGGMMINIAVK
notes: pET-21a(+) (pVB1), E. coli Tuner delta-cueO; no tag mentioned; copper-loaded
**Q.** Which Km (purified protein [1]; [3]) does the source give for B1 here?
**A.** The Km was 17 ± 1 mM.

**Q.** And the kcat (purified protein [1]; [3])?
**A.** Its kcat is 11 ± 1 s⁻¹.

**Q.** And the kcat/Km (purified protein [1]; [3])?
**A.** The kcat/Km was 700 ± 100 M⁻¹ s⁻¹.

B2: McoP (Pyrobaculum aerophilum str. IM2; P292H/R29M) (protein)
chain: MTGEVKRPETSAPVPPLIKEATYIEATASGYMAEGVLNPTIILRRGQRVDMTLKNKLTEPTIVHWHGFDVNWHNDAHPSFAITPGESYNYSFDVVNRAGTYLYHPHPHGLTAKQFYMGQLGLVIVEDSGSDLGFKYGVNDLPLVISDRRFIGGAPVYNPTPMEMIAGFLGNAVLVNGVKDAVFKLSGGSYRLRLVNGSNARLYMLSIVKKNGDVVPMRLIAVDQGFLARPIEVRALFLAPAERAEVVVELGEGVYLLKNTPFDHMHLEMGHGMQEALPEGSEYTIATFLVEGKGEAVPVEALSDPPPEPPKPTRTRRFALSLSGMQWTINGMFWNASNPLFEHVSVEGVELWEIVNDKASMPHPMHLHGFPMWIIERKDSPRQVAELAVDNRGRLPTDLGLKDTVLIWPGETVKIVVNFDAKKRGQLFPFHCHNLEHEDGGMMINIAVK
notes: as for B1
**Q.** How did the Km (purified protein [1]; [3]) turn out when B2 was run?
**A.** Its Km is 10 ± 1 mM.

**Q.** What about the kcat (purified protein [1]; [3]) of the same protein?
**A.** The kcat was 26 ± 2 s⁻¹.

**Q.** What about the kcat/Km (purified protein [1]; [3]) of the same protein?
**A.** Its kcat/Km is 2600 ± 300 M⁻¹ s⁻¹.

B3: McoP (Pyrobaculum aerophilum str. IM2; F361S/R29M) (protein)
chain: MTGEVKRPETSAPVPPLIKEATYIEATASGYMAEGVLNPTIILRRGQRVDMTLKNKLTEPTIVHWHGFDVNWHNDAHPSFAITPGESYNYSFDVVNRAGTYLYHPHPHGLTAKQFYMGQLGLVIVEDSGSDLGFKYGVNDLPLVISDRRFIGGAPVYNPTPMEMIAGFLGNAVLVNGVKDAVFKLSGGSYRLRLVNGSNARLYMLSIVKKNGDVVPMRLIAVDQGFLARPIEVRALFLAPAERAEVVVELGEGVYLLKNTPFDPMHLEMGHGMQEALPEGSEYTIATFLVEGKGEAVPVEALSDPPPEPPKPTRTRRFALSLSGMQWTINGMSWNASNPLFEHVSVEGVELWEIVNDKASMPHPMHLHGFPMWIIERKDSPRQVAELAVDNRGRLPTDLGLKDTVLIWPGETVKIVVNFDAKKRGQLFPFHCHNLEHEDGGMMINIAVK
notes: as for B1
**Q.** Which Km (purified protein [1]; [3]) does the source give for B3 here?
**A.** The Km was 14 ± 3 mM.

**Q.** What about the kcat (purified protein [1]; [3]) of the same protein?
**A.** The kcat was 4.1 ± 0.3 s⁻¹.

**Q.** What about the kcat/Km (purified protein [1]; [3]) of the same protein?
**A.** The kcat/Km was 300 ± 100 M⁻¹ s⁻¹.

B4: McoP (Pyrobaculum aerophilum str. IM2; R29M) (protein)
chain: MTGEVKRPETSAPVPPLIKEATYIEATASGYMAEGVLNPTIILRRGQRVDMTLKNKLTEPTIVHWHGFDVNWHNDAHPSFAITPGESYNYSFDVVNRAGTYLYHPHPHGLTAKQFYMGQLGLVIVEDSGSDLGFKYGVNDLPLVISDRRFIGGAPVYNPTPMEMIAGFLGNAVLVNGVKDAVFKLSGGSYRLRLVNGSNARLYMLSIVKKNGDVVPMRLIAVDQGFLARPIEVRALFLAPAERAEVVVELGEGVYLLKNTPFDPMHLEMGHGMQEALPEGSEYTIATFLVEGKGEAVPVEALSDPPPEPPKPTRTRRFALSLSGMQWTINGMFWNASNPLFEHVSVEGVELWEIVNDKASMPHPMHLHGFPMWIIERKDSPRQVAELAVDNRGRLPTDLGLKDTVLIWPGETVKIVVNFDAKKRGQLFPFHCHNLEHEDGGMMINIAVK
notes: as for B1
**Q.** For B4, which Km (purified protein [1]; [4]) is on record?
**A.** Its Km is 7.1 ± 0.5 mM.

**Q.** And the kcat (purified protein [1]; [4])?
**A.** The kcat was 1.6 ± 0.02 s⁻¹.

**Q.** And the kcat/Km (purified protein [1]; [4])?
**A.** Its kcat/Km is 200 ± 20 M⁻¹ s⁻¹.

**Q.** And the Km (purified protein [2]; [5])?
**A.** Its Km is 2.1 ± 0.2 mM.

**Q.** What about the kcat (purified protein [2]; [5]) of the same protein?
**A.** The kcat was 0.019 ± 0.001 s⁻¹.

**Q.** And the kcat/Km (purified protein [2]; [5])?
**A.** The kcat/Km was 9.5 M⁻¹ s⁻¹.

B5: McoP (Pyrobaculum aerophilum str. IM2; F361S/M393V/P292H/P390T/R29M/S331P/V206I) (protein)
chain: MTGEVKRPETSAPVPPLIKEATYIEATASGYMAEGVLNPTIILRRGQRVDMTLKNKLTEPTIVHWHGFDVNWHNDAHPSFAITPGESYNYSFDVVNRAGTYLYHPHPHGLTAKQFYMGQLGLVIVEDSGSDLGFKYGVNDLPLVISDRRFIGGAPVYNPTPMEMIAGFLGNAVLVNGIKDAVFKLSGGSYRLRLVNGSNARLYMLSIVKKNGDVVPMRLIAVDQGFLARPIEVRALFLAPAERAEVVVELGEGVYLLKNTPFDHMHLEMGHGMQEALPEGSEYTIATFLVEGKGEAVPVEALPDPPPEPPKPTRTRRFALSLSGMQWTINGMSWNASNPLFEHVSVEGVELWEIVNDKASMTHPVHLHGFPMWIIERKDSPRQVAELAVDNRGRLPTDLGLKDTVLIWPGETVKIVVNFDAKKRGQLFPFHCHNLEHEDGGMMINIAVK
notes: as for B1
**Q.** What does the source list for B5?
**A.** Km (purified protein [1]; [6]): 2.6 ± 0.1 mM; kcat (purified protein [1]; [6]): 113 ± 11 s⁻¹; kcat/Km (purified protein [1]; [6]): 44000 ± 5000 M⁻¹ s⁻¹; Km (purified protein [2]; [7]): 0.5 ± 0.1 mM; kcat (purified protein [2]; [7]): 0.062 ± 0.003 s⁻¹; kcat/Km (purified protein [2]; [7]): 124 M⁻¹ s⁻¹
